From patent publication US20230002481A1 (Chugai, published 2023)

Target: T1, recombinant cyno C1r2s2 His/Flag tetramer (cynomolgus monkey, limits assumed)
T1 construct: Heterotetramer of two C1r-His and two C1s-Flag chains, co-expressed in FreeStyle293-F cells; also called cyno C1r2s2s
T1 chain 1: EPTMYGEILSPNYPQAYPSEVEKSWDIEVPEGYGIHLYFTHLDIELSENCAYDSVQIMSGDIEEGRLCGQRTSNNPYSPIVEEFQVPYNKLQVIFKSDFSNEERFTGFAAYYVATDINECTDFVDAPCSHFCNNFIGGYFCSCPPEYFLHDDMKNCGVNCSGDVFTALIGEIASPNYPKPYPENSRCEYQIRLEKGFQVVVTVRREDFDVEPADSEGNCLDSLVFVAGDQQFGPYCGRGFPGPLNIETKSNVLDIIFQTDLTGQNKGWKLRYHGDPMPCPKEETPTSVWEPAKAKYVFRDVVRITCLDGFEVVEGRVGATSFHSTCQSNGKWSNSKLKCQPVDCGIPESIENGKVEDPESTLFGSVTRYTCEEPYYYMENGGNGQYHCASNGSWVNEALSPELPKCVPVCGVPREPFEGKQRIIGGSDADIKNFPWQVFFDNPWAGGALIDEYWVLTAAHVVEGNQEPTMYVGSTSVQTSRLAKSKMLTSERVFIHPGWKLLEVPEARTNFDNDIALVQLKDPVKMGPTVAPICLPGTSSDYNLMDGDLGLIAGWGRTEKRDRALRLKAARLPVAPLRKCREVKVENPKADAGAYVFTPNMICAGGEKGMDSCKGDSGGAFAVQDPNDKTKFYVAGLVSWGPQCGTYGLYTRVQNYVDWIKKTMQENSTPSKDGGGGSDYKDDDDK
T1 chain 2: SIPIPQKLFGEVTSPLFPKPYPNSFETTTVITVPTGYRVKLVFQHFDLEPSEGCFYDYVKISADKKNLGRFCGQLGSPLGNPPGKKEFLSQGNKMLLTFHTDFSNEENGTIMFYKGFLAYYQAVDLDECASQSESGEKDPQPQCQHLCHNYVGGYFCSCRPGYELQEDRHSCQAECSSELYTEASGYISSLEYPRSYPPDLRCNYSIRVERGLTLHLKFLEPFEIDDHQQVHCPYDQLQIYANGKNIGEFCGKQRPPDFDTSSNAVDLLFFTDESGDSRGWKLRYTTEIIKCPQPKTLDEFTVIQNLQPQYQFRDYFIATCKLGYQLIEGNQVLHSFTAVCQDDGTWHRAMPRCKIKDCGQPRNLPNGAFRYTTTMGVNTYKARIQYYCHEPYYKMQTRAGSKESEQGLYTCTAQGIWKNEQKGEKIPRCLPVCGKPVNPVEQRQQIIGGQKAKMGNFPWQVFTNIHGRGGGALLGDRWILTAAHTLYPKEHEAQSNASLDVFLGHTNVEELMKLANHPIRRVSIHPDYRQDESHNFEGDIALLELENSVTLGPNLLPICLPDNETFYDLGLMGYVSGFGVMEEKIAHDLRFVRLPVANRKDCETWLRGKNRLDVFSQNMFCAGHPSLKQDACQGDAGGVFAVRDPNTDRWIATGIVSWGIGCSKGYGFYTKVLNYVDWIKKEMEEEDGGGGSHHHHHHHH
Assay: SPR (Biacore), antibody captured on ProA/G, antigen as analyte, 37 C, pH5.8, 1.2 mM CaCl2; pH 5.8
Procedure: The kinetic parameters of anti-C1s antibodies against recombinant human C1s (as described in PCT/JP2018/042054), human C1r2s2, and cyno C1r2s2 His/Flag (also referred as cyno C1r2s2 in the Table and Figures) were assessed at pH7.4 and pH5.8, at 37 degrees C. using BIACORE (registered trademark) T200 instrument (GE Healthcare) or BIACORE 4000 (GE Healthcare). ProAG (Pierce) was immobilized onto a CM4 sensorchip using amine coupling kit (GE Healthcare) according to the recommended settings by GE Healthcare. Antibodies and analytes were diluted into the respective running buffers, ACES pH7.4 and pH5.8 (20 mM ACES, 150 mM NaCl, 1.2 mM CaCl₂, 1 mg/ml BSA, 1 mg/ml CMD, 0.05% Tween 20, 0.005 w/v % NaN₃). Each antibody was captured onto the sensor surface by ProA/G. Antibody capture levels were typically 100-200 resonance units (RU). Then, recombinant C1s was injected at concentrations of 25 and 50 nM followed by dissociation at pH7.4 and pH5.8. The surface was regenerated using 10 mM Glycine-HCl, pH1.5. Kinetic parameters at neutral pH conditions and acidic conditions were determined by fitting the sensorgrams with 1:1 binding model using BIACORE (registered trademark) T200 Evaluation software, version 2.0 (GE Healthcare) or BIACORE 4000 Evaluation software. The dissociation rate at pH5.8 (after dissociation at pH7.4, indicated as pH5.8* in TABLE 2) was determined by processing and fitting data using Scrubber 2.0 (BioLogic Software) curve fitting software. The association rate (ka), dissociation rate (kd), binding affinity (KD) at pH7.4 and pH5.8 condition, and dissociation rate (kd) at pH5.8* condition of the antibodies are listed in TABLE 2. Some kinetic parameters of COS0098pHv1 in acidic condition were not correctly calculated because of its weak binding response.
Also, to observe the cross-reactivity of anti-C1s antibodies against human C1r2s2 and cyno C1r2s2 (cyno C1r2s2 His/Flag), BIACORE (registered trademark) kinetics analysis was performed.

B1: COS0098bb (antibody, V domains shown)
VH: QSVEESGGRLVTPGTPLTLTCTVSGFSLTKYTVSWVRQAPGKGLEWIGIINTGGSAYYATWAKGRFTFSKTSTTVDLQITSPTTEDTATYFCARGNGDTDYTNLWGPGTLVTVSS
VL: QVLTQTPSSVSEPVGGTVTINCQASENIYSALAWYQQKPGQPPKLLIYGASNLESGVPSRFKGSGSGTQFTLTISDLECADAATYYCQQYYFTSSTFGGGTKVEIK
notes: Anti-C1s rabbit antibody, parent of COS0098pHv1; the antibody was captured by ProA/G; also called anti-C1s antibody COS0098bb
- Kd: 0.894 nM
- koff: 0.00105 s⁻¹
- kon: 1.17e+06 M⁻¹ s⁻¹
